Laboratory results as given in publication PMC7616709 (Molecular cell, 2024).

Molecular target: the molecule itself

B1: WDR26 (subunit of the recombinant WDR26-CTLH E3) (natural protein, human, UniProt Q9H7D7 1-661, looked up)
chain: MQANGAGGGGGGGGGGGGGGGGGGGQGQTPELACLSAQNGESSPSSSSSAGDLAHANGLLPSAPSAASNNSNSLNVNNGVPGGAAAASSATVAAASATTAASSSLATPELGSSLKKKKRLSQSDEDVIRLIGQHLNGLGLNQTVDLLMQESGCRLEHPSATKFRNHVMEGDWDKAENDLNELKPLVHSPHAIVVRGALEISQTLLGIIVRMKFLLLQQKYLEYLEDGKVLEALQVLRCELTPLKYNTERIHVLSGYLMCSHAEDLRAKAEWEGKGTASRSKLLDKLQTYLPPSVMLPPRRLQTLLRQAVELQRDRCLYHNTKLDNNLDSVSLLIDHVCSRRQFPCYTQQILTEHCNEVWFCKFSNDGTKLATGSKDTTVIIWQVDPDTHLLKLLKTLEGHAYGVSYIAWSPDDNYLVACGPDDCSELWLWNVQTGELRTKMSQSHEDSLTSVAWNPDGKRFVTGGQRGQFYQCDLDGNLLDSWEGVRVQCLWCLSDGKTVLASDTHQRIRGYNFEDLTDRNIVQEDHPIMSFTISKNGRLALLNVATQGVHLWDLQDRVLVRKYQGVTQGFYTIHSCFGGHNEDFIASGSEDHKVYIWHKRSELPIAELTGHTRTVNCVSWNPQIPSMMASASDDGTVRIWGPAPFIDHQNIEEECSSMDS
notes: WDR26, human, from human cDNA library (pFLN WDR26); The models 8QE8 and 8QBN exclude the CTLH-CRA^N domain of WDR26; also called WDR26 dimer
stoichiometry N: 2
